Two molecules from patent US10058586B2, “Use of human small leucine zipper protein in adipocyte differentiation procedure” (Korea University Research and Business Foundation, priority 2013, dated 2018) can be followed below.

This test concerns the target T1, PPARγ2 (Homo sapiens, UniProt P37231).
T1 sequence (P37231 1-505): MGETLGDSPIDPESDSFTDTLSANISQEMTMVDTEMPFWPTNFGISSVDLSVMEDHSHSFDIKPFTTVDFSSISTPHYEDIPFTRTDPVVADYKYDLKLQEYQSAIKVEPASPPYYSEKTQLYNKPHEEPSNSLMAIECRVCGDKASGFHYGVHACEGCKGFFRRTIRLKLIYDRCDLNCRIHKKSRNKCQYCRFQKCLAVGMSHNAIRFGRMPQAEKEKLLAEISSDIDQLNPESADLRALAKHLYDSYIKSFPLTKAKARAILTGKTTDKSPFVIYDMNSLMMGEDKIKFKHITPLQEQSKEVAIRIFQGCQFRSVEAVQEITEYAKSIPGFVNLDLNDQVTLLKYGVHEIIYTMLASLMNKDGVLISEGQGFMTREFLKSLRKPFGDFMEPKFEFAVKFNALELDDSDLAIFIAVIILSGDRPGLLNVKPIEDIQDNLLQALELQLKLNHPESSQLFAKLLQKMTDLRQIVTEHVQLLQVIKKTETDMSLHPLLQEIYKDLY
Nature of the test: Luciferase reporter gene analysis (FABP4-Luc) of PPARγ2 transcriptional activity in 293T cells. The format is cell-based. More on the design: expressed in transfected cells; host or cells: 293T cells. The following applies: 293T cells; for PPARγ2 transcriptional activity (luciferase): sLZIP or deletion mutants 0.1 μg, RZD treated; for transcriptional activity of PPARγ2 (luciferase): sLZIP 0.1 μg. How it is done: C3H10T1/2 and 293T cells were plated in a 12-well culture dish at a density of 2×10^5 cells/well and incubated for 24 hours. Then, according to instructions of the manufacturer, the cells were transfected with a 0.2 μg of reporter genes and 0.1 to 0.5 μg of a laboratory plasmid using Lipofectamine 2000 or Genefectine. After 24 hours, the cells were cultured in a serum-free DMEM with or without 10 nM of rosiglitazone. siRNAs were prepared using sLZIP and HDAC target sequences (Table 1). For an RNA interference experiment, according to instructions of the manufacturer, the cells were transfected with scrambled control group RNA and appropriate siRNAs using Lipofectamine 2000. Human MSC and C3H10T/1/2 cells were infected with an adenovirus vector containing cDNA of human sLZIP or an empty vector. The infected medium was exchanged with a fresh medium after two hours.
Appropriately transfected cells were washed with cold PBS twice, and a reporter lysis buffer (Promega) was used and lysed in a culture dish. Luciferase analysis was performed using a luciferase analysis system (Promega Corporation, Madison, Wis.). A luciferase activity was recorded in Luminometer 20/20^n (Turner BioSystems, Sunnyvale, Calif.) according to instructions of the manufacturer. The luciferase activity was normalized to a β-galactosidase activity. For β-galactosidase analysis, CMV-β-galactosidase was transfected with luciferase reporter genes. All pieces of data were represented as mean±standard deviation of the results from at least three independent experiments.
In order to examine an effect of sLZIP on the transcriptional activity of PPARγ2, 293T cells were temporarily transfected with PPARγ2 (0.5 μg), β-galactosidase (0.1 μg), FABP4-Luc reporter genes (0.2 μg) and sLZIP at different contents (0.1 to 0.5 μg). After the transfection, the cells were stimulated with or without 10 nM of rosiglitazone (RZD) (FIG. 1A), pioglitazone (PZD) (FIG. 1B), and troglitazone (TZD) (FIG. 1C). A relative luciferase activity was analyzed with or without cell ligand treatment 24 hours after transfection. Also, the 293T cells were transiently transfected with si-sLZIP at different contents (50 and 100 nM), and the cells were treated or not treated with RZD (FIG. 1D). FABP4-Luc stable C3H10T1/2 cells were infected with a sLZIP-expressing adenovirus, and then differentiated into adipocytes for 4 days (FIG. 1E). A luciferase activity was normalized to a β-galactosidase activity and represented as a relative activity (fold change). All experiments were repeated three times, and bars in the graph represent mean±standard deviation. *, P<0.05; **, P<0.01
For this purpose, 293T cells were transiently transfected with PPARγ2 (0.5 μg), (3-galactosidase (0.1 μg), FABP4-Luc reporter genes (0.2 μg) and sLZIP (0.1 μg). After the transfection, the cells were stimulated with or without 10 nM of RZD and 10 nM of TSA (FIG. 4A). A promoter activity was measured according to luciferase analysis. In the 293T cells, FABP4-Luc reporter genes, sLZIP, PPAR, β-galactosidase, and 100 nM of si-RNAs and HDAC1, 2, 3 and 8 for a control group were expressed. After the transfection, the cells were stimulated with or without 10 nM of RZD, and a promoter activity was measured (FIG. 4B). 293T cells were temporarily transfected with FABP4-Luc reporter genes, PPARγ2, β-galactosidase, HDAC3 (0.5 μg) and sLZIP (0.1 μg). After the transfection, the cells were stimulated with or without 10 nM of RZD, and luciferase analysis was performed (FIG. 4C). A luciferase activity was normalized to a β-galactosidase activity and represented as a relative intensity (fold change). All experiments were repeated three times, and bars in the graph represent mean±standard deviation. GFP-sLZIP expression constructs were expressed in C3H10T1/2 cells, rabbit anti-HDAC3 antibodies and Texas Red-labeled anti-rabbit antibodies were used and analysis was performed under a fluorescence microscope. The nucleus was stained with DAPI (FIG. 4D). […]
A general note: A reporter such as luciferase makes a cellular process visible.

B1: N domains of sLZIP: N-terminal deletion mutant of sLZIP, residues 1-228 (protein)
chain: MELELDAGDQDLLAFLLEESGDLGTAPDEAVRAPLDWALPLSEVPSDWEVDDLLCSLLSPPASLNILSSSNPCLVHHDHTYSLPRETVSMDLESESCRKEGTQMTPQHMEELAEQEIARLVLTDEEKSLLEKEGLILPETLPLTKTEEQILKRVRRKIRNKRSAQESRRKKKVYVGGLESRVLKYTAQNMELQNKVQLLEEQNLSLLDQLRKLQAMVIEISNKTSSSS
modifications: left off: a dimerising Fc or GST
For the molecule B1, the “PPARγ2 transcriptional activity (luciferase)” value is “The transcriptional activity of PPARγ2 was inhibited”.

B2: sLZIP: human small leucine-zipper protein, isoform of LZIP, 354 amino acids, no transmembrane domain; GenBank FJ263669, SEQ ID NO: 1 (protein, listed as Homo sapiens)
chain: MELELDAGDQDLLAFLLEESGDLGTAPDEAVRAPLDWALPLSEVPSDWEVDDLLCSLLSPPASLNILSSSNPCLVHHDHTYSLPRETVSMDLESESCRKEGTQMTPQHMEELAEQEIARLVLTDEEKSLLEKEGLILPETLPLTKTEEQILKRVRRKIRNKRSAQESRRKKKVYVGGLESRVLKYTAQNMELQNKVQLLEEQNLSLLDQLRKLQAMVIEISNKTSSSSMYSSDTRGSLPAEHGVLSRQLRALPSEDPYQLELPALQSEVPKDSTHQWLDGSDCVLQAPGNTSCLLHYMPQAPSAEPPLEWPFPDLFSEPLCRGPILPLQANLTRKGGWLPTGSPSVILQDRYSG
For B2, the “PPARγ2 transcriptional activity (luciferase)” value is recorded as “still inhibited the PPARγ2 transcriptional activity”. Besides, the “transcriptional activity of PPARγ2 (luciferase)” value (cells treated with 10 nM TSA (HDAC inhibitor)) was “did not decrease the transcriptional activity of PPARγ2”. The “transcriptional activity of PPARγ2 (luciferase)” value (no TSA) is “inhibits the transcriptional activity of PPARγ2”. In addition, the “transcriptional activity of PPARγ2 (relative luciferase activity)” value (sLZIP 0.1 to 0.5 μg, with or without 10 nM RZD, PZD or TZD) is “inhibits the transcriptional activity of PPARγ2 in a concentration-dependent manner”. In addition, the “sLZIP-mediated PPARγ2 transcriptional activity (luciferase)” value (transfection of both sLZIP (0.1 μg) and HDAC3 (0.5 μg)) is recorded as “significantly down-regulated”.
